# Reference: paper PMC11169542, “A probe for NIR-II imaging and multimodal analysis of early Alzheimer’s disease by targeting CTGF” (Nature Communications, 2024)
# Ends that are not written are not given here.
# What was measured:
# [1] = Monitoring DGC in blood serum by ex vivo NIR-II imaging; design: species or system C57BL/6J mice; conditions: NIR-II imaging and ICP-MS quantification of DGC in mouse serum after tail vein injection
# Method: The C57BL/6J mice (male and female) were injected with DGC (20 mg/kg) through the tail vein (n = 3). After injection, the blood samples were collected at 0.083, 0.25, 0.5, 1, 2, 4, 8, 10, 12, 24, and 48 h through the posterior orbital vein of the mice. The serum was obtained by centrifugation (1200×g for 5 min) to remove blood cells. The serum samples were observed through the In vivo Master (Grand-imaging Technology) equipped with an InGaAs camera C-RED2 (Firstlight) (λ ex = 808 nm, 1000 nm longpass (LP) filter (Edmund Optics)) camera to obtain the NIR-II image (exposure time: 50 ms). ImageJ software was used to process and analyze the images obtained in the experiment, and the DGC content in the sample was evaluated according to the fluorescence intensity of the sample.
# [2] = Absolute quantum yield, integrated sphere technique; type: physicochemical
# Method: Figure R6. Stability of DGC in AD brains. Monitoring fluorescence intensity of DGC in brain of WT mice and 3-month-old APP/PS1 mice for 24 h (left). In vivo and ex vivo NIR-II imaging of brains after DGC injected for 24 h (right).
# The absolute quantum yield (QY) of DGC probe was measured to be ~0.7% using an […]
# for biological applications. Although this QY is not high, but sufficient to produce a bright signal in the AD mouse brain for detection in vivo in this study.
# Reviewer 3: The co-localization coefficient should be calculated in Figure 2d. […]
# was calculated by Image J software. The co-localization coefficient (Pearson's correlation coefficient) of DGC and CTGF antibodies in Figure 2d was 0.946 (Fig. R15).
# Figure R15. The co-localization coefficient (Pearson's correlation coefficient) of DGC and CTGF […]
# [3] = target: T1, CTGF (Mus musculus, UniProt P29268); assay: DGC fluorescence labelling of AD mouse brain sections in vitro; design: species or system APP/PS1 and wild-type C57BL/6J mice; conditions: 200 μM DGC 4 °C overnight
# T1 construct: brain sections of the age-matched wild-type C57BL/6J mice were used as controls; from tissue; host or cells: brain of APP/PS1 transgenic and wild-type C57BL/6J mice (sections, living animal, perfused isolated brain)
# T1 sequence (P29268 26-348): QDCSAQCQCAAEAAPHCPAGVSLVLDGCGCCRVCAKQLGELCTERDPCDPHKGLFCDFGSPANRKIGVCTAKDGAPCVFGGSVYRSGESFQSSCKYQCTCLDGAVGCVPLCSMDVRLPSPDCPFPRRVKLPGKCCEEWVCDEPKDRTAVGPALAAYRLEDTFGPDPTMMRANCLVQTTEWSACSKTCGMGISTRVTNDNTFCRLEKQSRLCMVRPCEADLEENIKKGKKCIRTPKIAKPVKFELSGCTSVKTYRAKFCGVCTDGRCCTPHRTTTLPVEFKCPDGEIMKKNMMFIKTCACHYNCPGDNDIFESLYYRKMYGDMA
# Excerpt: To evaluate the expression of CTGF in the brain of AD mice and the efficacy of DGC in vitro, brain sections of APP/PS1 transgenic mice (derived from C57BL/6J) from 1-month to 9-month-old (1-, 2-, 3-, 6- and 9-month-old, female, n = 3) were used as AD model, and brain sections of the age-matched wild-type C57BL/6J mice were used as controls (female, n = 3). The brain sections were subjected to CTGF antibody immunofluorescence staining and DGC fluorescence imaging. The brains were collected and fixed with 4% PFA. The embedded brain was then sectioned using a microtome into 5-μm thick consecutive sections. The brain sections were immersed in Tris-EDTA buffer (pH = 9.0) at 95 °C for 15 min. The brain sections were then incubated with 3% bovine serum albumin for 1.5 h. Then, the brain sections were stained overnight at 4 °C with an anti-CTGF primary antibody (dilution 1:50, Abcam, Cat#ab6992). After restoring room temperature, they were washed with TBST (pH = 7.4, 3 × 5 min) and incubated with FITC-labeled Goat Anti-Rabbit IgG (h +L) (1: dilution 1:200, Bioss, Cat#bs-0370R-FITC) for 1 h. The brain sections were washed with TBST (pH = 7.4, 3 × 5 min). Finally, overnight staining with DGC (200 μM) at 4 °C and fluorescence imaging were obtained by the CLSM system.
# Brain sections from female APP/PS1 double transgenic mice were used as AD models, and brain sections of the age-matched female wild-type C57BL/6J mice were used as controls to evaluate the availability of DGC in vitro. Three-month-old APP/PS1 mice (early-stage, unestablished Aβ plaques) and 9-month-old APP/PS1 mice (late-stage, established Aβ plaques) were chosen for comparison. All mice were purchased from Beijing HFK Bioscience Co., Ltd and handled in accordance with the Ethics Committee of Beijing University of Technology, China. To avoid the interference of strong background fluorescence signals of blood in cerebral microvessels, the blood vessels were emptied by cardiac perfusion with saline and PFA before dissociating the brain. After the completion of perfusion, the brain was collected and fixed with PFA for a longer time ex vivo. The embedded brain was then sectioned using a microtome into 5-μm thick continuous sections. The brain sections were labeled with DGC or CTGF, GFAP, and Aβ antibodies. Deparaffinization was performed first and antigen retrieval was implemented with immersion of the brain sections into Tris-EDTA buffer (pH = 9.0) at 95 °C for 15 min. Then, the brain sections were incubated with 3% bovine serum albumin for 1.5 h.
# For fluorescence imaging of CTGF, the brain sections were stained with anti-CTGF primary antibody (dilution 1:50, Abcam, Cat#ab6992), anti-glial fibrillary acidic protein (GFAP) primary antibody (diluted 1:400, Proteintech, Cat#16825-1-AP) or anti-Aβ 17-24 (4G8, diluted 1:1000, BioLegend, Cat#SIG-39200) at 4 °C for 4 h. After they were washed by TBST (pH = 7.4, 3 × 5 min) at room temperature, the brain sections were incubated with the secondary antibody (FITC-labeled Goat Anti-Rabbit IgG (H + L) (1: dilution 1:200, Bioss, Cat#bs-0370R-FITC) for 1 h. After the brain sections were washed by TBST (pH = 7.4, 3 × 5 min). Finally, the brain sections were co-stained by DGC (200 μM) at 4 °C overnight, and the staining results were acquired on the CLSM system.
substance,measurement,setting,value
"DGC: CTGF-targeting peptide-coated gold nanocluster: one Au26 gold nanocluster coated by eight DAG cyclic peptides, NIR-II and red fluorescence (CDAGRKQKC; also: cyclic peptide, ring not given here, eight peptides on one Au26 nanocluster via Cys Au-S bonds)",stability in blood circulation,[1],high stability during internal circulation
same,absolute quantum yield (QY),[2],~ 0.7%
same,FL intensity of DGC on brain section,"[3]; 3-month-old APP/PS1 mouse brain section, section 1",0.02124
same,FL intensity of DGC on brain section,"[3]; 3-month-old APP/PS1 mouse brain section, section 2",0.02275
same,FL intensity of DGC on brain section,"[3]; 3-month-old APP/PS1 mouse brain section, section 3",0.01511
same,FL intensity of DGC on brain section,"[3]; 9-month-old APP/PS1 mouse brain section, section 1",0.0369
same,FL intensity of DGC on brain section,"[3]; 9-month-old APP/PS1 mouse brain section, section 2",0.0329
same,FL intensity of DGC on brain section,"[3]; 9-month-old APP/PS1 mouse brain section, section 3",0.0406
same,FL intensity of DGC on brain section,"[3]; WT mouse brain section, section 1",0.00435
same,FL intensity of DGC on brain section,"[3]; WT mouse brain section, section 2",0.0071
same,FL intensity of DGC on brain section,"[3]; WT mouse brain section, section 3",0.0055
